# From patent US12383631 (BRIGHT PEAK THERAPEUTICS, dated 2025)
# Changes are numbered by the printed parent chain. In names and notes the source's numbering stands.
# T1: human IL-18BP-His (human, UniProt O95998 31-194, limits assumed)
# T1 construct: also called His-tagged human IL-18BP; not shown: His tag
# T1 sequence (looked up): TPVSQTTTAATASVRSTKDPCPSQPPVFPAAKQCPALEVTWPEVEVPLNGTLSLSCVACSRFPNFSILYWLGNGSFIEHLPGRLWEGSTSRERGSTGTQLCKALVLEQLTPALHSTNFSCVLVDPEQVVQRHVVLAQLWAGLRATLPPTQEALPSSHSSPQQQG
# T2: IL-18 receptor (IL-18Rα/IL-18Rβ) on cells (HEK-Blue IL18R reporter cells, NK-92, KG-1) (human, UniProt Q13478 19-541; O95256 20-599)
# T2 sequence (looked up) 1: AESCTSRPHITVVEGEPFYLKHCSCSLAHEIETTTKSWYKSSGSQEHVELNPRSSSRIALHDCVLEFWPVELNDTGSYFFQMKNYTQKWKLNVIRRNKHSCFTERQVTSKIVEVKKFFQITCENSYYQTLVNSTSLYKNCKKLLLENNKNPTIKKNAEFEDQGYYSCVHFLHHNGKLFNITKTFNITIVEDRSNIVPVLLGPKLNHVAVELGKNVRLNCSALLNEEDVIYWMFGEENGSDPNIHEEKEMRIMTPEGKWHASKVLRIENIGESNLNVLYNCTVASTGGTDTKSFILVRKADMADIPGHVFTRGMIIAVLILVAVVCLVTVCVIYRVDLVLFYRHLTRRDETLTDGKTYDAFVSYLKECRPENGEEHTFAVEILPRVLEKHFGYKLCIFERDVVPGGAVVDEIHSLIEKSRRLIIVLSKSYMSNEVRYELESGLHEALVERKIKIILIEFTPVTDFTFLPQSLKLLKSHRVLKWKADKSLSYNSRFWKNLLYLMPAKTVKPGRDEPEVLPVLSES
# T2 sequence (looked up) 2: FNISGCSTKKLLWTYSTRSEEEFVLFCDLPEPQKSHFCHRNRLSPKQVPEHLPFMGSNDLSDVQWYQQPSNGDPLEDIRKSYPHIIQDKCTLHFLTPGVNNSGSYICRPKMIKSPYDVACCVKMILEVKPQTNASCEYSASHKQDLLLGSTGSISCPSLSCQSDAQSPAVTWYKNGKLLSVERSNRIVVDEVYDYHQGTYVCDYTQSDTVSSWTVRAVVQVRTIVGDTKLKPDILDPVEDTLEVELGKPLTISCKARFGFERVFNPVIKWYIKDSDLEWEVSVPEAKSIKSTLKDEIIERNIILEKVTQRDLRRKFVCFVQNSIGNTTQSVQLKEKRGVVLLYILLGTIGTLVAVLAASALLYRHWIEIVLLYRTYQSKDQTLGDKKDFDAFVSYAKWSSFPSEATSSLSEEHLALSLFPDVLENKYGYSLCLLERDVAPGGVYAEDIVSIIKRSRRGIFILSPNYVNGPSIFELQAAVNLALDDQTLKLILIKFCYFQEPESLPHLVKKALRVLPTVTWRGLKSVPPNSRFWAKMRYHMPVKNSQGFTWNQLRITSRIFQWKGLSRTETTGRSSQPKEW
# B1: IL-18 polypeptide C142 (ligand)
# chain: MFGKLKSKLSIIRNLNDQVLFIDQGNRPLFEDMTDSDARDNAPRTIFIISMYADSQPRGMAVAISVKCEKISTLSAENKIISFKEMNPPDNIKDTKSDIIFFQRSVPGHDNKMQFESSSYEGYFLAAEKERDLFKLILKKEDELGDRSIMFTVQNED
# notes: also called Y1M, E6K, V11I, C38A, K53A, T63A, C76A, C127A
# B2: IL-18 polypeptide of SEQ ID NO: 47 (C38S, C68S, C76S, C127S) (ligand)
# chain: B1 chain with M1Y, K6E, I11V, A38S, A53K, A63T, C68S, A76S, A127S
# B3: IL-18 polypeptide C145 (ligand)
# chain: B1 chain with M1Y, K6E, S55A, A63T
# notes: also called V11I, C38A, K53A, S55A, C76A, C127A
# B4: IL-18 polypeptide C144 (ligand)
# chain: B1 chain with M1Y, K6E
# notes: also called V11I, C38A, K53A, T63A, C76A, C127A
# B5: IL-18 polypeptide C143 (ligand)
# chain: B1 chain with M1Y, K6E, A63T
# notes: also called V11I, C38A, K53A, C76A, C127A
# B6: IL-18 polypeptide of SEQ ID NO: 55 (K53A, T63A, C38S, C68S, C76S, C127S, K70C) (ligand)
# chain: B1 chain with M1Y, K6E, I11V, A38S, C68S, K70C, A76S, A127S
# B7: IL-18 polypeptide C147 (ligand)
# chain: B1 chain with M1Y, K6E, D54A, A63T
# notes: also called V11I, C38A, K53A, D54A, C76A, C127A
# B8: IL-18 polypeptide of SEQ ID NO: 56 (E6K, K53A, C38S, C76S, C127S) (ligand)
# chain: B1 chain with M1Y, I11V, A38S, A63T, A76S, A127S
# B9: IL-18 polypeptide C148 (ligand)
# chain: B1 chain with M1Y, F2A, K6E, A63T
# notes: also called F2A, V11I, C38A, K53A, C76A, C127A
# B10: IL-18 polypeptide C146 (SEQ ID NO: 68) (ligand)
# chain: B1 chain with M1Y, K6E, M51G, A63T
# notes: also called V11I, C38A, M51G, K53A, C76A, C127A
# B11: IL-18 polypeptide of SEQ ID NO: 48 (C38S, C68S, C76S, C127S, K70C) (ligand)
# chain: B1 chain with M1Y, K6E, I11V, A38S, A53K, A63T, C68S, K70C, A76S, A127S
# B12: IL-18 polypeptide C174 (ligand)
# chain: B1 chain with M1Y, K8L
# notes: also called K8L, E6K, V11I, C38A, K53A, T63A, C76A, C127A
# B13: IL-18 polypeptide C176 (ligand)
# chain: B1 chain with M1Y, I49M
# notes: also called E6K, V11I, C38A, I49M, K53A, T63A, C76A, C127A
# B14: IL-18 polypeptide C184 (ligand)
# chain: B1 chain with M1Y, K6R
# notes: also called E6R, V11I, C38A, K53A, T63A, C76A, C127A
# B15: IL-18 polypeptide C181 (ligand)
# chain: B1 chain with M1Y, V153E
# B16: IL-18 polypeptide C182 (ligand)
# chain: B1 chain with M1Y, V153Y
# B17: IL-18 polypeptide C183 (SEQ ID NO: 69) (ligand)
# chain: B1 chain with M1Y, M51G
# B18: IL-18 polypeptide C178 (ligand)
# chain: B1 chain with M1Y, Q103R
# B19: IL-18 polypeptide C179 (ligand)
# chain: B1 chain with M1Y, K8E, Q103R
# B20: IL-18 polypeptide C177 (ligand)
# chain: B1 chain with M1Y, I49R
# B21: IL-18 polypeptide of SEQ ID NO: 34 (E06K, K53A, S55A) (ligand)
# chain: B1 chain with M1Y, I11V, A38C, S55A, A63T, A76C, A127C
# B22: IL-18 polypeptide C141 (SEQ ID NO: 71) (ligand)
# chain: GYFGKLKSKLSIIRNLNDQVLFIDQGNRPLFEDMTDSDARDNAPRTIFIISMYADSQPRGMAVAISVKCEKISTLSAENKIISFKEMNPPDNIKDTKSDIIFFQRSVPGHDNKMQFESSSYEGYFLAAEKERDLFKLILKKEDELGDRSIMFTVQNED
# B23: IL-18 polypeptide C192 (SEQ ID NO: 70) (ligand)
# chain: B22 chain with M52G
# B24: IL-18 polypeptide C140 (SEQ ID NO: 72) (ligand)
# chain: GGGGYFGKLKSKLSIIRNLNDQVLFIDQGNRPLFEDMTDSDARDNAPRTIFIISMYADSQPRGMAVAISVKCEKISTLSAENKIISFKEMNPPDNIKDTKSDIIFFQRSVPGHDNKMQFESSSYEGYFLAAEKERDLFKLILKKEDELGDRSIMFTVQNED
# B25: IL-18 polypeptide of SEQ ID NO: 4 (E6K, C38A, K53A, C68A, M86C) (ligand)
# chain: B1 chain with M1Y, I11V, A63T, C68A, A76C, M86C, A127C
# B26: IL-18 polypeptide of SEQ ID NO: 43 (E06K, K53A, S55A, Y01G) (ligand)
# chain: B1 chain with M1G, I11V, A38C, S55A, A63T, A76C, A127C
# B27: IL-18 polypeptide of SEQ ID NO: 6 (E6K, V11I, C38A, K53A, T63A, C68A, C76A, D98C, C127A) (ligand)
# chain: B1 chain with M1Y, C68A, D98C
# B28: IL-18 polypeptide of SEQ ID NO: 9 (E6K, C38A, K53A, C68A, D98C) (ligand)
# chain: B1 chain with M1Y, I11V, A63T, C68A, A76C, D98C, A127C
# B29: IL-18 polypeptide of SEQ ID NO: 5 (E6K, V11I, C38A, K53A, T63A, C68A, C76A, M86C, C127A) (ligand)
# chain: B1 chain with M1Y, C68A, M86C
# B30: IL-18 polypeptide of SEQ ID NO: 35 (Y01G, F02A, E06K, M51G, K53A, D54A, S55A, T63A) (ligand)
# chain: B1 chain with M1G, F2A, I11V, A38C, M51G, D54A, S55A, A76C, A127C
# B31: IL-18 polypeptide of SEQ ID NO: 44 (E06K, K53A, S55A, F02A) (ligand)
# chain: B1 chain with M1Y, F2A, I11V, A38C, S55A, A63T, A76C, A127C
# B32: IL-18 polypeptide of SEQ ID NO: 45 (E06K, K53A, S55A, D54A) (ligand)
# chain: B1 chain with M1Y, I11V, A38C, D54A, S55A, A63T, A76C, A127C
# B33: IL-18 polypeptide of SEQ ID NO: 46 (E06K, K53A, S55A, M51G) (ligand)
# chain: B1 chain with M1Y, I11V, A38C, M51G, S55A, A63T, A76C, A127C
# B34: IL-18 polypeptide of SEQ ID NO: 49 (E06K, K53A, S55A, C38S, C68S, C76S, C127S, K70C) (ligand)
# chain: B1 chain with M1Y, I11V, A38S, S55A, A63T, C68S, K70C, A76S, A127S
# Molecular target: T1, human IL-18BP-His
# Test: AlphaLISA of free IL-18BP
# Description: The plate is incubated further for 1 hr at room temperature. Under subdued light, 12.5 µL of 2× streptavidin (SA) donor beads are pipetted into each well, and the wells are incubated with shaking for an additional 30 min at room temperature. The AlphaLisa signal is then measured on an Enspire plate reader with 680 and 615 nm as excitation and emission wavelengths, respectively. The dissociation constant (K_D) is calculated based on a variable slope, four parameter analysis using GraphPad PRISM software.
row,Kd,Binder
1,2.25 nM,B1
2,0.03 nM,B2
3,9.74 nM,B3
4,0.66 nM,B4
5,8.86 nM,B5
6,913 nM,B6
7,25.8 nM,B7
8,436 nM,B8
9,57.2 nM,B9
10,373 nM,B10
11,0.21 nM,B11
12,0.14 nM,B12
13,25.8 nM,B13
14,5.46 nM,B14

# Molecular target: T2, IL-18 receptor (IL-18Rα/IL-18Rβ) on …
# Test: cell-based or functional assay
row,"EC50, HEK-Blue IL18R reporter cells",Binder
1,0.02 pM,B1
2,0.1 pM,B15
3,3.63 pM,B3
4,0.17 pM,B4
5,0.08 pM,B16
6,0.98 pM,B5
7,0.1 pM,B17
8,1 pM,B7
9,0.26 pM,B18
10,0.4 pM,B19
11,3.73 pM,B8
12,7.28 pM,B9
13,0.8 pM,B10
14,0.04 pM,B20
15,272 pM,B21
16,0.29 pM,B12
17,0.07 pM,B13
18,0.04 pM,B14
19,1.68 pM,B22
20,14 pM,B23
21,2.5 pM,B24

# Molecular target: T2, IL-18 receptor (IL-18Rα/IL-18Rβ) on …
# Test: cell-based or functional assay
# Remark: another data set of the same source
row,"EC50, IFNγ stimulation, NK92 cells",Binder
1,0.022 nM,B25
2,6.12 nM,B26
3,1.37 nM,B27
4,0.069 nM,B28
5,0.075 nM,B29
6,0.115 nM,B2
7,0.087 nM,B3
8,0.012 nM,B4
9,0.138 nM,B5
10,17.2 nM,B6
11,0.079 nM,B7
12,> 55 nM,B30
13,> 1000 nM,B31
14,0.256 nM,B9
15,30 nM,B32
16,7.4 nM,B33
17,0.037 nM,B10
18,0.488 nM,B11
19,0.824 nM,B21
20,58.5 nM,B34
